Measured values as given in patent US10001489B2, “Method for constructing a novel affinity peptide library for binding immunoglobulin G based on a protein affinity model of protein A” (TIANJIN UNIVERSITY, priority 2012, dated 2018).
Where no end group is shown, it is not given here.

Legend:
[1] = biological target: bovine serum albumin (bovine) (UniProt P02769); assay: affinity chromatography, peptide immobilized on Thiopropyl Sepharose 6B, pH 5.5
[2] = biological target: bovine serum albumin (bovine) (UniProt P02769); assay: affinity chromatography, peptide immobilized on Thiopropyl Sepharose 6B, pH 6.0
[3] = biological target: bovine serum albumin (BSA) (Bos taurus, UniProt P02769); assay: Affinity chromatography, BSA on peptide-coupled Thiopropyl Sepharose 6B column; format: binding
Sequence of bovine serum albumin (BSA) (P02769 25-607): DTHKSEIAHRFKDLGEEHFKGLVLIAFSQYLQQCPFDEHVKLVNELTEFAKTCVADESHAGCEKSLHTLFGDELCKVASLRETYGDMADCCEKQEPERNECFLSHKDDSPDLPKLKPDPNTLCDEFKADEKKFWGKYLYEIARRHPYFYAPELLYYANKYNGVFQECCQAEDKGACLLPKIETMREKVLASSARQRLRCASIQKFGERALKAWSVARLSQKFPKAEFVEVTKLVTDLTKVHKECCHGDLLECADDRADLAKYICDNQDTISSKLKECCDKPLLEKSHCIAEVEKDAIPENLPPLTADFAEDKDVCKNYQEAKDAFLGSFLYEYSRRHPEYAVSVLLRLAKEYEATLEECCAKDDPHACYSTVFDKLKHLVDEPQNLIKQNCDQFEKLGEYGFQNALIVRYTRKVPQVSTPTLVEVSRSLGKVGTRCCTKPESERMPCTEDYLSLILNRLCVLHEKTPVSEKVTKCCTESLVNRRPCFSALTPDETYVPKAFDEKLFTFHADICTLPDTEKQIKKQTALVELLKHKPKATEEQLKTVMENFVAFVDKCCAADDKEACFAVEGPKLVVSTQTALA
Method: (§1) Peptide powders purchased from GL Biochem Ltd. (Shanghai, China) had been purified by high performance liquid chromatography (HPLC) with a purity of 96.36%. 1 g of resin (Thiopropyl Sepharose 6B, purchased from GE Healthcare) was weighed and washed for 15 min with 200 mL of deionized water in a buchner funnel. After being filtered and getting rid of water, two aliquots of 1.0 g of drained gel were transferred into two 25-mL Erlenmeyer flasks, respectively. Then 6 mL and 10.7 mL of linking buffer (0.1 M Tris-HCl, pH 7.5, 0.5 M NaCl and 1 mM EDTA) were added to the two flasks respectively, to fully pre-equilibrate the gels. […] The peptides were fully mixed with the gels in corresponding flasks and initial peptide concentrations of 1.0 mg/mL were obtained. The mixtures were reacting in a shaking bath at a rate of 180 rpm, at 25° C. for 2 h. 500 μL of supernatant was acquired each hour for analyzing the residue peptide content in the reaction solution with reversed-phase high pressure liquid chromatography (RP-HPLC). […] After the reaction was finished, the reaction system was centrifuged and the supernatant was removed, then the gel was washed repeatedly with washing buffer (10 mM PBS, pH 7.2, 150 mM NaCl) in a buchner funnel to get rid of the free peptides. Finally, equilibriation buffer (20 mmol/L citrate buffers, pH 5.0-5.5; or 20 mmol/L PBS buffers, pH 5.5-6.0) was used to suspend the gel to 1 mL, and after being degassed, the gel was slowly loaded into the glass column (Tricorn chromatogram column, Tricorn 5×5, GE healthcare). The column was first washed with equilibration buffer at 0.1 mL/min, and then the speed of the buffer was increased to 0.2 mL/min when the column pressure was stable, and the speed of the buffer was increased according to above operation till it reached 1.0 mL/min.
(1) Equilibration: the affinity column was washed with equilibration buffer until a stable baseline was reached. The flow rate of buffer was 0.5 mL/min, keep washing another five column volumes (CVs) before sample injection.
(2) Sample injection: unless specifically stated, all protein samples were prepared by equilibration buffer. After sample injection, the column was equilibrated with 5-10 CVs of equilibration buffer (20 mmol/L citrate buffer, pH≤5.5; or 20 mmol/L PBS buffer, pH≥5.5). The sample loading amount was 100 μL, protein sample concentration was 1.0 mg/mL, and the flow rate was 0.5 mL/min.
(3) Elution: the column was washed with 5-10 CVs of elution buffer, and the flow rate was 0.8 mL/min.
(4) Storage: first 10 CVs of deionized water was used to wash the column, followed by another 10 CVs of 20% ethanol solution. Then the affinity gel was stored in this solution. All buffers should be filtered through a filter and degassed before use.

[4] = system: hIgG; assay: Affinity chromatography, pulse injection of hIgG on peptide-coupled Thiopropyl Sepharose 6B column; format: binding, human
Method: as §1
(1) Equilibration: the affinity column was washed with equilibration buffer until a stable baseline was reached. The flow rate of buffer was 0.5 mL/min, keep washing another five column volumes (CVs) before sample injection. […]

Sequence of bovine serum albumin (bovine) (P02769 25-607 limits assumed): as the sequence (P02769 25-607) above

Row | Sequence | fraction of loaded protein bound (fraction of BSA) [1] | fraction of loaded protein bound (fraction of BSA) [2] | binding of BSA by immobilised peptide ligand ([3]; pH 5.5) | binding of hIgG by immobilised peptide ligand ([4]; pH 5.0-6.0) | binding of BSA by immobilised peptide ligand (fraction of BSA bound) ([3]; pH 6.0) | binding of BSA by immobilised peptide ligand ([3]; pH 6.5) | binding of hIgG by immobilised peptide ligand ([4]; pH 5.5-7.0) | binding of hIgG by immobilised peptide ligand ([4]; pH 6.0, 20 mM PBS)
1 | FYCHWALE peptide ligand | 0.5 | 0.333 |  |  |  |  |  | 
2 | FYWHCLDE (not fully specified (residue 5)) [synthesized and immobilized on Thiopropyl Sepharose 6B] |  |  | large binding | strong binding |  |  |  | 
3 | FYCHWALE (not fully specified (residue 3)) [synthesized and immobilized on Thiopropyl Sepharose 6B] |  |  | about half |  | ⅓ | trace | could bind a lot of hIgGs | could bind almost all hIgGs
